In patent US20250382373A1, “ANTI-EGFR/MET ANTIBODIES AND USES THEREOF” (Biocytogen Pharmaceuticals (Beijing) Co., Ltd., priority 2022, published 2025):

Columns and labels:
[1] = system: NUGC-4 cells; assay: NUGC-4 xenograft model (gastric cancer); type: in vivo, B-NDG mice; settings: 3 mg/kg i.v. QW x2
[2] = system: NCI-H1975 cells; assay: NCI-H1975 xenograft in Balb/c nude mice; type: in vivo; settings: 10 mg/kg, BIW, 4 administrations, i.v.
Description: The mice were then injected with PBS, E-6C4-M-2F II-ADC (1.5 mg/kg, 3 mg/kg or 6 mg/kg, QW, 2 administrations in total) or Amivantamab (Janssen, Reference No.: LFS0L03) (10 mg/kg, BIW, 4 administrations in total) by intravenous (i.v.) administration.

[3] = system: patient-derived ampullary tumor fragments; assay: Human ampullary carcinoma PDX model; type: in vivo, B-NDG mice; settings: 10 mg/kg i.v. BIW x4
Description: The ADCs were tested for their effect in human ampullary carcinoma PDX model.
The mice were then injected with PBS, ADCs or Amivantamab (Janssen, Cat #: LFS0L03) by intravenous (i.v.) administration.

[4] = system: patient-derived gastric tumor fragments; assay: Human gastric cancer PDX model; type: in vivo, B-NDG mice; settings: 10 mg/kg i.v. BIW x6
Description: The mice were then injected with PBS, ADCs or Amivantamab (Janssen, Reference No.: LFS01L03) by intravenous (i.v.) administration.

Molecule | Tumor volume Day 14 [1] [mm^3] | TGI (%) ([1]; Day 28) | Tumor volume Day 0 ([1]; day of grouping) [mm^3] | Tumor volume Day 28 ([1]; end of experiment) [mm^3] | Tumor-free (Day 28) ([1]; number of tumor-free mice/total) | TGI [2] [%] | Tumor volume Day 14 [3] [mm^3] | Tumor volume Day 21 [3] [mm^3] | TGI (%) ([3]; Day 21) | Tumor volume Day 0 ([3]; day of grouping) [mm^3] | Tumor volume Day 28 [4] [mm^3] | Tumor volume Day 56 [4] [mm^3] | TGI (%) ([4]; Day 56) | Tumor volume Day 0 ([4]; day of grouping) [mm^3] | Survival ([4]; surviving/total mice)
Telisotuzumab analog-ADC (conjugate, chains of the INN, looked up, antibody-drug conjugate payload) VH: QVQLVQSGAEVKKPGASVKVSCKASGYIFTAYTMHWVRQAPGQGLEWMGWIKPNNGLANYAQKFQGRVTMTRDTSISTAYMELSRLRSDDTAVYYCARSEITTEFDYWGQGTLVTVSS VL: DIVMTQSPDSLAVSLGERATINCKSSESVDSYANSFLHWYQQKPGQPPKLLIYRASTRESGVPDRFSGSGSGTDFTLTISSLQAEDVAVYYCQQSKEDPLTFGGGTKVEIK | 60 ± 10 | 108.1 | 198 ± 14 | 88 ± 67 | 0/5 |  |  |  |  |  |  |  |  |  | 
Amivantamab: Amivantamab (Janssen, Reference No.: LFS0L03), bispecific antibody targeting EGFR and MET (antibody, chains of the INN, looked up, V domains shown) VH: QVQLVESGGGVVQPGRSLRLSCAASGFTFSTYGMHWVRQAPGKGLEWVAVIWDDGSYKYYGDSVKGRFTISRDNSKNTLYLQMNSLRAEDTAVYYCARDGITMVRGVMKDYFDYWGQGTLVTVSS VL: AIQLTQSPSSLSASVGDRVTITCRASQDISSALVWYQQKPGKAPKLLIYDASSLESGVPSRFSGSESGTDFTLTISSLQPEDFATYYCQQFNSYPLTFGGGTKVEIK VH2: QVQLVQSGAEVKKPGASVKVSCETSGYTFTSYGISWVRQAPGHGLEWMGWISAYNGYTNYAQKLQGRVTMTTDTSTSTAYMELRSLRSDDTAVYYCARDLRGTNYFDYWGQGTLVTVSS VL2: DIQMTQSPSSVSASVGDRVTITCRASQGISNWLAWFQHKPGKAPKLLIYAASSLLSGVPSRFSGSGSGTDFTLTISSLQPEDFATYYCQQANSFPITFGQGTRLEIK |  |  |  |  |  | 12.9 | 756 ± 78 | 1047 ± 104 | 8 | 273 ± 13 | 40 ± 6 | 643 ± 391 | 86.3 | 262 ± 24 | 5/5
